Consider two molecules from publication PMC4822050.

One data set has as its target T1, SRA-Spacer (human, UniProt Q96T88 414-674).
T1 sequence: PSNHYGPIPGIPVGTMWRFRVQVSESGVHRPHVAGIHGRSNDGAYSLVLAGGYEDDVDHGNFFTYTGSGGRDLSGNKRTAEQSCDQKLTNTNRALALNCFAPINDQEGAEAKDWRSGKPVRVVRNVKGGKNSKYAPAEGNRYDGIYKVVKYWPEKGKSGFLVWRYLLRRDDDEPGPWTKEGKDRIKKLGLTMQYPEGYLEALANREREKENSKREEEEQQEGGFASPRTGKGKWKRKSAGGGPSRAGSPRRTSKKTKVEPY
The experiment in a line: X-ray crystallography; 3.15 A; Spacer residues 617-674 not built; ITC: 10 mM HEPES pH 8.0, 100 mM NaCl, 18 C; EMSA: 20 mM HEPES pH 7.5, 100 mM NaCl, 8% glycerol, 1 mM DTT, on ice; pull-down: 20 mM HEPES-NaOH pH 8.0, 100 mM NaC.

In the next data set the target is T2, UHRF1 full-length (human, UniProt Q96T88 1-793).
T2 sequence: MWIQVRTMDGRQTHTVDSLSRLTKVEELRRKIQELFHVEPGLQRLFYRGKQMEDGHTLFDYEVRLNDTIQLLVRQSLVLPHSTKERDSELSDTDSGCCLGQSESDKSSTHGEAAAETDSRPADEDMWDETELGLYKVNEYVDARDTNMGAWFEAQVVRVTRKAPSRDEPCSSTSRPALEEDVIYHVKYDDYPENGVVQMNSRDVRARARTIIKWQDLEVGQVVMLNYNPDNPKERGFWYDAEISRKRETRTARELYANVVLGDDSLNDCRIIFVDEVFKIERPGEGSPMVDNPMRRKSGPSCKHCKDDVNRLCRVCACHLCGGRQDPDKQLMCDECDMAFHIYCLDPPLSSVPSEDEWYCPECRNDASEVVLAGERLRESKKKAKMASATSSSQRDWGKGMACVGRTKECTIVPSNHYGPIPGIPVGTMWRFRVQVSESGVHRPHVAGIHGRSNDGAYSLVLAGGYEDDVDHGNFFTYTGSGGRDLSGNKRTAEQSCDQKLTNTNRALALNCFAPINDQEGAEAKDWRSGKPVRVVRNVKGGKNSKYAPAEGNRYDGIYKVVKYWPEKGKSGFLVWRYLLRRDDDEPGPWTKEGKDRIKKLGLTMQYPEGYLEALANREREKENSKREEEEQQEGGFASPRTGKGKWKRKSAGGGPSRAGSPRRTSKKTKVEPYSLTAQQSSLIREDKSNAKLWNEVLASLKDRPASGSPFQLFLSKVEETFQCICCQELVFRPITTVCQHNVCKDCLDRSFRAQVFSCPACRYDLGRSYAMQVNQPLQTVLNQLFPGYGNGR
Briefly: pull-down; H3 (1-17) peptide; affinity not affected; ITC: 10 mM HEPES pH 8.0, 100 mM NaCl, 18 C; EMSA: 20 mM HEPES pH 7.5, 100 mM NaCl, 8% glycerol, 1 mM DTT, on ice; pull-down: 20 mM HEPES-NaOH pH 8.0, 100 mM NaC.

B1: 18-bp hm-DNA (crystal) (dsDNA)
DNA 1: CATCGTCCCTGCGGGCCC
DNA 2: GGGCCCGCAGGGACGATG
modifications: 5-methyl-dC at position 6 of strand 2 (GGGCCXGCAGGGACGATG)
With B1, the binding result with SRA-Spacer was “binds”.

B2: biotin-hm-DNA 12 bp (pull-down) (dsDNA)
DNA 1: GAGGCCGCCTGC
DNA 2: GCAGGCGGCCTC
modifications: 5-methyl-dC at position 6 of strand 1 (GAGGCXGCCTGC)
B2: the binding result with UHRF1 full-length was “binds”.
